The values that follow come from PMC10757926, “Two birds with one stone: human SIRPα nanobodies for functional modulation and in vivo imaging of myeloid cells” (Frontiers in Immunology, 2023).

In assay [1] the target is T1, hSIRPα domain 2 displayed on U2OS cells (Homo sapiens, UniProt P78324).
T1 construct: signal-regulatory protein α (SIRPα), human, domain 2; also called hSIRPαD2; D2; source: U2OS, transiently expressing, on live cells
Kind of assay: immunostaining of cells or tissue; live-cell immunofluorescence on U2OS cells expressing the target; unlabeled Nbs (1 nM to 100 nM) with Cy5-labeled anti-VHH, 1 h at 37°C. The following applies: one partner purified.

The target in assay [2] is T2, hSIRPα domain 1 displayed on U2OS cells (Homo sapiens, UniProt P78324).
T2 construct: signal-regulatory protein α (SIRPα), human, domain 1; also called hSIRPαD1; D1; source: U2OS, transiently expressing, on live cells
The assay is described as above. Particulars: one partner purified.

In assay [3] the target is T3, hSIRPα domain 3 displayed on U2OS cells (Homo sapiens, UniProt P78324).
T3 construct: signal-regulatory protein α (SIRPα), human, domain 3; also called hSIRPαD3; D3; source: U2OS, transiently expressing, on live cells
The assay is described as above. Particulars: one partner purified.

Assay [4] deals with T4, full-length hSIRPα on U2OS cells (Homo sapiens, UniProt P78324).
T4 construct: signal-regulatory protein α (SIRPα), human, full-length, co-expressed with IRES-derived GFP; also called U2OS-hSIRPα; source: U2OS, stably expressing, on live cells
Described as above. The following applies: one partner purified.

The target in assay [5] is T5, hSIRPβ1 displayed on U2OS cells (Homo sapiens, UniProt O00241).
T5 construct: signal-regulatory protein β1 (SIRPβ1), human; source: U2OS, transiently expressing, on live cells
Described as above. The following applies: one partner purified.

In assay [6] the target is T6, murine SIRPα displayed on U2OS cells (Mus musculus, UniProt P97797).
T6 construct: signal-regulatory protein α (SIRPα), mouse; also called mouse SIRPα; source: U2OS, transiently expressing, on live cells
Described as above. Particulars: one partner purified.

In assay [7] the target is T7, hSIRPα-V1 displayed on U2OS cells (Homo sapiens, allele V1, UniProt P78324).
T7 construct: signal-regulatory protein α (SIRPα), human, allelic variant V1; also called hSIRPα variant V1; source: U2OS, transiently expressing, on live cells
The assay is described as above. The following applies: one partner purified.

Another assay addresses T8, recombinant hSIRPα (human, UniProt P78324).
T8 construct: signal-regulatory protein α (SIRPα), human, recombinant extracellular portion; source: bought: Acrobiosystems
Kind of assay: HDX-MS; hSIRPα with Nb S8, S33 or S36; methods not in the text shown. The following applies: both partners purified.

For assay [8], the target named is T9, biotinylated recombinant hSIRPα (extracellular portion) (Homo sapiens, UniProt P78324, biotin (Sulfo-NHS-LC-LC-Biotin)).
T9 construct: signal-regulatory protein α (SIRPα), human, recombinant extracellular portion; also called biotinylated hSIRPα; signal-regulatory protein α; source: bought: Acrobiosystems
Nature of the assay: BLI; epitope binning: two consecutive association steps with different Nbs on recombinant hSIRPα. The following applies: both partners purified.

Assay [9] addresses T10, hSIRPγ displayed on U2OS cells (Homo sapiens, UniProt Q9P1W8).
T10 construct: signal-regulatory protein γ (SIRPγ), human; also called hSIRPy; source: U2OS, transiently expressing, on live cells
Kind of assay: immunostaining of cells or tissue; live-cell immunofluorescence on U2OS cells expressing the target; unlabeled Nbs (1 nM to 100 nM) with Cy5-labeled anti-VHH, 1 h at 37°C. Particulars: one partner purified.

T9 sequence (P78324 31-373): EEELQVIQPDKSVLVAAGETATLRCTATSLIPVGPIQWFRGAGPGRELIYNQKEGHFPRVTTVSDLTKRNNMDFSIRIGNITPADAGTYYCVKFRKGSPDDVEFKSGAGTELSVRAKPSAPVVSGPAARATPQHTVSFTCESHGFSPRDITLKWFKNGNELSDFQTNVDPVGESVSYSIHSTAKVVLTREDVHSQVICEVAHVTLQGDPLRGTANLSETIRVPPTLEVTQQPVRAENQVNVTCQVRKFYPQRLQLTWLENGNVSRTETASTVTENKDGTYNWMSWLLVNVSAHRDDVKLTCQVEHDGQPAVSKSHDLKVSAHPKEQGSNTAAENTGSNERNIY
T2 sequence (P78324 whole entry, looked up, tested part not stated): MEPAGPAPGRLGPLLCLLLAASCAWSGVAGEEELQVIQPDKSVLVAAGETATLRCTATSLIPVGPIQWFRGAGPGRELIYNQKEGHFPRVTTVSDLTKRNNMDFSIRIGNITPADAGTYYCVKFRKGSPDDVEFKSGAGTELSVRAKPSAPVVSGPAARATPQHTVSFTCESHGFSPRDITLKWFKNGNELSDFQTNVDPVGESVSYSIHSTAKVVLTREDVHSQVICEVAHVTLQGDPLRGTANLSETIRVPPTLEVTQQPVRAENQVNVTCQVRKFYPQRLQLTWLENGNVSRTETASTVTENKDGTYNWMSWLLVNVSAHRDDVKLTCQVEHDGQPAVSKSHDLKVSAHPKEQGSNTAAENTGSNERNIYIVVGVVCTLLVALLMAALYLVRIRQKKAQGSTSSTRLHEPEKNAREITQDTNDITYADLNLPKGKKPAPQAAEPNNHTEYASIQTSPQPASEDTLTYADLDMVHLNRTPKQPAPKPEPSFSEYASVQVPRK
T3 sequence (P78324 whole entry, looked up, tested part not stated): as above
T1 sequence (P78324 whole entry, looked up, tested part not stated): as above
T10 sequence (Q9P1W8 29-387): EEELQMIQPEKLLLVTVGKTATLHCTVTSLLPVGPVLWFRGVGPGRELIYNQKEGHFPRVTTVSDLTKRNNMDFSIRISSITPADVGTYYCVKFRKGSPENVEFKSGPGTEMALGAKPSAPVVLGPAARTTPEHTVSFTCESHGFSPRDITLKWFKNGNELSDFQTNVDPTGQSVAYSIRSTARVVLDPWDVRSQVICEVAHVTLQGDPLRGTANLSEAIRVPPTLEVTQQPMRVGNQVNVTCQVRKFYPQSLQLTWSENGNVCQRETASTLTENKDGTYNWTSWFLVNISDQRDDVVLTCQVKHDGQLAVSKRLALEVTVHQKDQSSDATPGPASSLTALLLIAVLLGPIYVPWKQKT
T6 sequence (P97797 32-513): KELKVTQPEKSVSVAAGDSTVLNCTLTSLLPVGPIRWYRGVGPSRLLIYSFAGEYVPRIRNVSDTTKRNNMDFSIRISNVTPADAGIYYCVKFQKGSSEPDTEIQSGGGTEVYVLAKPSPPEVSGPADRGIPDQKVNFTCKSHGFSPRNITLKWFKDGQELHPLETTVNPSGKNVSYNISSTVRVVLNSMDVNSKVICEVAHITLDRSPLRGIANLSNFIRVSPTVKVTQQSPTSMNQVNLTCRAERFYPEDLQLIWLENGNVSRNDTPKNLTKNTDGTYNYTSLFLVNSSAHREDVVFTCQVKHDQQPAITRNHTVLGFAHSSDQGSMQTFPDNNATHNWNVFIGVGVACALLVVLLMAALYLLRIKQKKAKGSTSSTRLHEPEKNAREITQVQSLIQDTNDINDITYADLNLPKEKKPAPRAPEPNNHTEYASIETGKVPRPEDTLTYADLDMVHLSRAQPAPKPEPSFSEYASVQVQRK
T7 sequence (P78324 31-504): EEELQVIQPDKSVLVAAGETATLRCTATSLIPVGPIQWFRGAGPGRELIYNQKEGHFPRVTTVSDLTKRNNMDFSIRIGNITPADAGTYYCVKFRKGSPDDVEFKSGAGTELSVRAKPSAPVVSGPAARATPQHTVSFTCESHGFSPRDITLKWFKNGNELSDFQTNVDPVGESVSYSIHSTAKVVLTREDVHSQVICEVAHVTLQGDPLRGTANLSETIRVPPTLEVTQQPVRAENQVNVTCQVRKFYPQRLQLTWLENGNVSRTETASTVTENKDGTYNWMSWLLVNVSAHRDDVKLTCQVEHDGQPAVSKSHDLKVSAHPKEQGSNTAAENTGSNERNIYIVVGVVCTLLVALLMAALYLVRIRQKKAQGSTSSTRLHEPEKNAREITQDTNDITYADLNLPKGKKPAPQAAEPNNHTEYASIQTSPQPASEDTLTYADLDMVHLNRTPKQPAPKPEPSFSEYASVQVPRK
T4 sequence (P78324 31-504): as above
T5 sequence (O00241 30-398): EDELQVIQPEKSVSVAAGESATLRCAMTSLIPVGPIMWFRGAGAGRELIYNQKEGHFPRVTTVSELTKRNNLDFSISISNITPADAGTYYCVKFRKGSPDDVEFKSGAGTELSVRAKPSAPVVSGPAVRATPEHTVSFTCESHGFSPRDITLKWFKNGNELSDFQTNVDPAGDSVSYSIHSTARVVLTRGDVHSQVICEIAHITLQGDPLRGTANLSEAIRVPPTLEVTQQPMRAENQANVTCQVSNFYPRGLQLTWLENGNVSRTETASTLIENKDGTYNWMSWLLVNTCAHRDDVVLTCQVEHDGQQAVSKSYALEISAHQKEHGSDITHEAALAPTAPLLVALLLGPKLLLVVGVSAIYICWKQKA
T8 sequence (P78324 31-373): as the sequence (P78324 31-373) above

B1: hSIRPα Nb S14 (VHH)
VHH: EVQLVESGGGLVQPGGSLRLSCAASGFTANSYRMTWVRQAPGKGLEWVADIGTGNEWKYYPDSVKGRFTISRDAAKNTVYLQMNSLKPEDTAVYYCAKNGAVWYGEDGLDYWGKGTLVTVSS
notes: selected against the entire extracellular portion of hSIRPα; source: E. coli XL-1, purified (IMAC, SEC); not shown: His tag (from the IMAC purification)
With B1, the binding result is recorded as “binds” in assay [1], “binds” in assay [2], “no binding (tested: Nbs 1 nM to 100 nM)” in [3] and “binds” in [4].

B2: hSIRPα Nb S7 (VHH)
VHH: HVQLVESGGGLVQVGDSLRLSCAPSGRTFRAYAMAWFRQAPGKEREFVAAIRWIGGTPSYKDSVKGRFTISRDNARNTFYLQMNSLEPQDTGVYYCAAEETQKGSGLGHDGRHYDYWGQGTPVTVSS
notes: as for B1
Regarding B2, the binding result in [5] is recorded as “binds”; in assay [3], “binds”; in [6], “no binding (tested: Nbs 1 nM to 100 nM)”; in assay [7], “binds”; in [4] it was “binds”.

B3: hSIRPα Nb S33 (VHH)
VHH: EVQLVESGGGLVQPGGSLRLSCTTSGFTLDYYSVGWFRQAPGKEREGVSCITASGSSTNYANSVKGRFTISRDKVKNTVYLQMSSLKPEDTAVYYCAAEPCTVVAGILQAPTSDFGSWGQGTQVTVSS
notes: as for B1
For the molecule B3, the binding result with recombinant hSIRPα is “binds”; in [1], “binds”; in assay [5], “binds”; in [3], “no binding (tested: Nbs 1 nM to 100 nM)”; in assay [6], “no binding (tested: Nbs 1 nM to 100 nM)”; in assay [7], “binds”. The binding result in [4] and in assay [8] was “binds” throughout.

B4: hSIRPα Nb S21 (VHH)
VHH: DVQLVESGGGLVQPGGSLTLSCAASGFTSGTYALAYFRQAPGKEREGVSCISNDGGSRNYADSVKGRFTISRDNAKNTMYLQMNSLKPEDTAVYYCAAGPWYYCSDFARRPDGMDYWGKGTPVTVSS
notes: as for B1
On to B4, for which the results for the binding result in [1], in assay [3] and in assay [4] were “binds”, “no binding (tested: Nbs 1 nM to 100 nM)” and “binds”, respectively.

B5: hSIRPα Nb S43 (VHH)
VHH: HVQLVESGGGLVQPGGSARLSCAASGFDLDYFAIGWFRQAPGKEREGVSCISTRSETTNYVDSVKGRFTISRDNAISTVYLQMNNLKPEDTAVYYCAADWADWTMTGCQMTWDDYNYWGQGAQVTVSS
notes: selected against domain 1 of hSIRPα; source: E. coli XL-1, purified (IMAC, SEC); not shown: His tag (from the IMAC purification)
Take B5: the binding result is “binds” in assay [2], “no binding (tested: Nbs 1 nM to 100 nM)” in assay [3] and “binds” in assay [4].

B6: hSIRPα Nb S45 (VHH)
VHH: HVQLVESGGGLVQPGGSLRLSCAARGFSFRDSAMSWARQAPGKGLEWVGAIYSDGSTVYEKSVKGRFTISRDNAKNTMYLQMHSLKPEDSARYYCAPKGVVADEGDYSGQGTLVTVSS
notes: as for B5
In the case of B6, the binding result in [9] is “no binding (tested: Nbs 1 nM to 100 nM)”; in assay [5] it was “binds”; in [2], “binds”; in [3] it was “no binding (tested: Nbs 1 nM to 100 nM)”; in [6], “no binding (tested: Nbs 1 nM to 100 nM)”; in assay [7], “binds”. The binding result in assay [4] and in [8] was “binds” throughout.

B7: hSIRPα Nb S44 (VHH)
VHH: QVQLQESGGGLVQPGGSLRLACAASGFTFSSYDMSWVRQAPGKGLEWVSDIKSGGGRTYYADSVKGRFTISRDNAKNTVYLQMNSLKPEDTAVYYCGSLDNSGAYTGGGQGSQVTVSS
notes: as for B5
In the case of B7, the binding result is reported as “binds” in [9]; “binds” in assay [5]; “binds” in [2]; “no binding (tested: Nbs 1 nM to 100 nM)” in assay [3]; “no binding (tested: Nbs 1 nM to 100 nM)” in [6]; “binds” in [4]. Besides, the binding result in assay [8] is recorded as “binds”.

B8: hSIRPα Nb S29 (VHH)
VHH: EVQLVESGGGLVQPGGSLRLSCAASGFTSETYAIGWFRQAPGKEREGVSCISNDGGSRNYADSVKGRFTISRDNAKNTSYLQMNSLKPEDTAVYYCAAGKYYYCLGYVSDGMDYWGKGTPVTVSS
notes: as for B1
In the case of B8, the binding result is listed as “binds” in assay [1], “no binding (tested: Nbs 1 nM to 100 nM)” in assay [3] and “binds” in [4].

B9: hSIRPα Nb S8 (VHH)
VHH: QVQLVESGGGLVQPGGSLRLSCADSEFRLDEYATGWFRQAPGKEREGVACISRSGSNTKYTDSVKGRFTISRDNAKKTVYLQMNSLKPEDTAVYYCAADLTSHYLSCSSYTDYNSWGQGTQVTVSS
notes: as for B1
As for B9, the binding result with recombinant hSIRPα was “binds”; in assay [9], “binds”; in assay [1], “binds”; in assay [5], “binds”; in [3] it was “no binding (tested: Nbs 1 nM to 100 nM)”; in assay [6], “no binding (tested: Nbs 1 nM to 100 nM)”. Moreover, the binding result in assay [7], in assay [4] and in assay [8] was “binds” throughout.

B10: hSIRPα Nb S42 (VHH)
VHH: HVQLVESGGGLVQPGGSLRLSCAASGFIFSGYAMSWVRQAPGKGLEWVSDISSDGVRLYYADSVKGRFTISRDNAKNTVYLEMTSLKPDDTALYYCATSSDPQLGLDLWGKGTPVTVSS
notes: as for B5
As to B10, the binding result in assay [2] was “binds”; in [3], “no binding (tested: Nbs 1 nM to 100 nM)”; in assay [4], “binds”.

B11: hSIRPα Nb S41 (VHH)
VHH: HVQLVESGGGLVQPGGSLRLSCAASGETLDYYAIGYVRQAPGKEREGVSCISSRGDNTNYADSVKGRFTISRDNANNTVYLQMNSLKPEDTAVYYCVAIKDSWQNYYCSVGWVEYDVWGQGTQVTVSS
notes: as for B5
For the molecule B11, the binding result is reported as “binds” in assay [5]; “binds” in [2]; “no binding (tested: Nbs 1 nM to 100 nM)” in assay [3]; “no binding (tested: Nbs 1 nM to 100 nM)” in [6]; “binds” in [4]; “binds” in assay [8].

B12: hSIRPα Nb S17 (VHH)
VHH: QVQLVESGGGLVQPGGSLRLSCAASGFTLDSYVIGWFRQAPGKEREGVSCISQRIGSTDYADSVKGRFTISKDNAKNTAYLQMNALKPEDTAVYYCAAGRLYYSGTYCPQGGMSYWGKGSPVTVSS
notes: as for B1
Turning to B12, the binding result in assay [1] was “binds”; in assay [2], “binds”; in assay [3] it was “no binding (tested: Nbs 1 nM to 100 nM)”; in assay [4], “binds”.

B13: hSIRPα Nb S12 (VHH)
VHH: QVQLVESGGGLVQPGGSLRLSCLVSGFSSSYYAIGWFRQAPGKEREGVSCITRSGDTTNYADSVKGRFTISRDDARNTVYLQMNSLKTEDTAVYSCALWAWAGSGRLRCTASEYGHWGQGTQVTVSS
notes: as for B1
With B13, the binding result in assay [9] is on record as “binds”; in assay [5], “binds”; in assay [2], “binds”; in [3], “no binding (tested: Nbs 1 nM to 100 nM)”; in assay [6], “no binding (tested: Nbs 1 nM to 100 nM)”; in assay [4], “binds”. Also, the binding result in assay [8] is recorded as “binds”.
